Test results taken from patent publication US11155602B2, “Polypeptides targeting HIV fusion” (priority 2015, dated 2021).
Numbering of substitutions follows the chain as printed.

B1: 227 (protein)
chain: MGHHHHHHGGSVSDVPRDLEVVAATPTSLLISWEYKVHPYRYYRITYGETGGNSPVQEFTVPSVLSTATISGLKPGVDYTITVYAVTYGDDSAPISINYRKEAEL
modifications: Adnectin
B2: 122 (protein)
chain: MGHHHHHHGGVSDVPRDLEVVAATPTSLLISWQYKVHPYRYYRITYGETGGNSPVQEFTVPSVLSTAEISGLKPGVDYTITVYAVTRGVDSAPISINYRTPGG
modifications: Adnectin
B3: 125 (protein)
chain: B2 chain with Q33E, E68T, R87Y, D90Q, A92D
modifications: Adnectin
B4: 226 (protein)
chain: MGHHHHHHGGSVSDVPRDLEVVAATPTSLLISWEYKVHPYRYYRIIHETGGNSPVQEFTVPSVLSTATISGLKPGVDYTITVYAVTYGDDSAPISINYRTEID
modifications: Adnectin
B5: 123 (protein)
chain: MGVSDVPRDLEVVAATPTSLLISWEYKVHPYRYYRITYGETGGNSPVQEFTVPSVLSTATISGLKPGVDYTITVYAVTRGVDSAPISINYRTEIDKPSQHHHHHH
modifications: Adnectin
B6: 240 (protein)
chain: B5 chain with H29S, R79Y, D82N, A84I
modifications: Adnectin
B7: 235 (protein)
chain: B5 chain with P30Y, Y31D, R79N, D82L, A84S
modifications: Adnectin
B8: 244 (protein)
chain: B5 chain with H29D, R79Y, A84D
modifications: Adnectin
B9: 236 (protein)
chain: B5 chain with H29N, Y31W
modifications: Adnectin
B10: 238 (protein)
chain: B5 chain with H29N, Y31W, R79Y, V81I, D82Q, A84P
modifications: Adnectin
B11: 239 (protein)
chain: B5 chain with E25Q, Y33W, R79Y, D82N, A84I
modifications: Adnectin
B12: 232 (protein)
chain: B5 chain with H29N, P30A, R79Y, V81I, D82E, A84S
modifications: Adnectin
B13: 124 (protein)
chain: B5 chain with T60E, E93P
modifications: Adnectin
B14: 234 (protein)
chain: B5 chain with H29N, P30A, R79Y, V81I, A84S
modifications: Adnectin
B15: 241 (protein)
chain: B5 chain with H29N, Y31W, R79Y, D82N, A84L
modifications: Adnectin
B16: 126 (protein)
chain: B5 chain with R79Y, V81I, D82Q, A84P
modifications: Adnectin
B17: 231 (protein)
chain: B5 chain with R79Y, D82N, A84I
modifications: Adnectin
B18: 233 (protein)
chain: B5 chain with R79D, D82Q, A84S
modifications: Adnectin
B19: 243 (protein)
chain: B5 chain with H29N, Y31W, R79Y, A84D
modifications: Adnectin
B20: 199 (protein)
chain: MGHHHHHHGGSVSDVPRDLEVVAATPTSLLISWEYKVHPYRYYRITYGETGGNSPVQEFTVPSVLSTATISGLKPGVDYTITVYAVTYGDDSQPISINYRTEID
modifications: Adnectin
B21: 205 (protein)
chain: B20 chain with K36D, Q93A
modifications: Adnectin
B22: 209 (protein)
chain: B20 chain with Q93T
modifications: Adnectin
B23: 210 (protein)
chain: B20 chain with Q93S
modifications: Adnectin
B24: 203 (protein)
chain: B20 chain with Q93G
modifications: Adnectin
B25: 220 (protein)
chain: B20 chain with G9C, H38A, P39H, Y40N, Q93A
modifications: Adnectin
B26: 200 (protein)
chain: B20 chain with G48T, Q93A
modifications: Adnectin
B27: 207 (protein)
chain: B20 chain with G48W, Q93A
modifications: Adnectin
B28: 223 (protein)
chain: B20 chain with H38D, P39Y, Y40R, Q93A
modifications: Adnectin
B29: 216 (protein)
chain: B20 chain with G72D, Q93H
modifications: Adnectin
B30: 206 (protein)
chain: B20 chain with Q93K
modifications: Adnectin
B31: 229 (protein)
chain: B20 chain with H38D, P39H, Y40R, Q93A
modifications: Adnectin
B32: 228 (protein)
chain: B20 chain with H38N, P39H, Y40Q, Q93A
modifications: Adnectin
B33: 214 (protein)
chain: B20 chain with Y88H, Q93A
modifications: Adnectin
B34: 217 (protein)
chain: B20 chain with Y88R, Q93A
modifications: Adnectin
B35: 211 (protein)
chain: B20 chain with Y88R, Q93A
modifications: Adnectin
B36: 222 (protein)
chain: B20 chain with H38D, P39H, Y40Q, Q93A
modifications: Adnectin
B37: 225 (protein)
chain: B20 chain with H38T, P39S, Q93A
modifications: Adnectin
B38: 212 (protein)
chain: B20 chain with Y88H, Q93A
modifications: Adnectin
B39: 215 (protein)
chain: B20 chain with E34K, K36D, Q93A
modifications: Adnectin
B40: 224 (protein)
chain: B20 chain with H38A, P39Y, Y40D, Q93A
modifications: Adnectin
B41: 213 (protein)
chain: B20 chain with Q93W
modifications: Adnectin
B42: 202 (protein)
chain: B20 chain with Q93K
modifications: Adnectin
B43: 201 (protein)
chain: B20 chain with D91Q, Q93A
modifications: Adnectin
B44: 208 (protein)
chain: B20 chain with Q93T
modifications: Adnectin
B45: 221 (protein)
chain: B20 chain with H38Y, P39G, Q93A
modifications: Adnectin
B46: 219 (protein)
chain: B20 chain with E34K, Q93A
modifications: Adnectin
B47: 218 (protein)
chain: B20 chain with S71R, Q93A
modifications: Adnectin
B48: 230 (protein)
chain: MGVSDVPRDLEVVAATPTSLLISWEYKVHPYRYYRITYGETGGNSPVQEFTVPSVLSTATISGLKPGVDYTITVYAVTYGVDSDPISINYRTDDKPSQHHHHHH
modifications: Adnectin

The molecules below were run on NL-Rluc virus (assay: Combinectin potency assay: antiviral EC50, NL-Rluc virus in MT-2 cells, luciferase readout). Details: Anti-N17 Adnectin, Table 3.
Format: cell-based, HIV-1
Outline: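 Peptides, serially diluted threefold over 11 points in triplicate, were exposed for 4–5 days to MT-2 cells preinfected 1 h with NL-Rluc virus (MOI 0.01). Replication read out as Renilla luciferase signal, with EC50 derived against untreated infected controls.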
With B1 the EC50 was > 1000 nM. In the case of B2, the EC50 is reported as 6 nM. Molecule B3 has an EC50 of 4340 nM. B4 gave an EC50 of 631 nM. For B5, the EC50 was 28 nM. B6 was tested, and the EC50 was 5 nM. Work on B7 yielded an EC50 of 29 nM. Molecule B8 has an EC50 of 58 nM. With B9 the EC50 was 85 nM. B10 gave an EC50 of 11 nM. In the case of B11, the EC50 is reported as 4 nM. Molecule B12 has an EC50 of 47 nM. B13 gave an EC50 of 6 nM. Work on B14 yielded an EC50 of 20 nM. For B15, the EC50 was 8 nM. For B16, the EC50 was 8 nM. For B17, the EC50 was 10 nM. In the case of B18, the EC50 is reported as 55 nM. For B19, the EC50 was 48 nM. For B20, the EC50 was > 1000 nM. Work on B21 yielded an EC50 of 86 nM. With B22 the EC50 was 20 nM. B23 was tested, and the EC50 was 143 nM. B24 gave an EC50 of 86 nM. For B25, the EC50 was 86 nM. In the case of B26, the EC50 is reported as > 1000 nM. With B27 the EC50 was > 1000 nM. B28 was tested, and the EC50 was > 1000 nM. With B29 the EC50 was > 1000 nM. In the case of B30, the EC50 is reported as 237 nM. In the case of B31, the EC50 is reported as > 1000 nM. For B32, the EC50 was > 1000 nM. For B33, the EC50 was > 1000 nM. For B34, the EC50 was > 1000 nM. For B35, the EC50 was 631 nM. B36 was tested, and the EC50 was > 1000 nM. B37 was tested, and the EC50 was > 1000 nM. In the case of B38, the EC50 is reported as 86 nM. B39 was tested, and the EC50 was > 1000 nM. For B40, the EC50 was > 1000 nM. In the case of B41, the EC50 is reported as > 1000 nM. With B42 the EC50 was > 1000 nM. Molecule B43 has an EC50 of 20 nM. For B44, the EC50 was > 1000 nM. B45 was tested, and the EC50 was > 1000 nM. With B46 the EC50 was > 1000 nM. Molecule B47 has an EC50 of 62 nM. Work on B48 yielded an EC50 of 17 nM.
